Assay results: the supplement of paper PMC10567573

B1: EIF5 (parent)
chain: KQTIGNSCKACGYRGMLDTHHKLC

Variants of: B1
Experiment: protein stability index of a GFP-peptide fusion (GPS, HEK-293T) (PSI 1-6); higher = more stable
Conditions: c terminus: a fixed tail appended
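Also: lentivirally expressed fusions sorted by FACS into six bins by GFP to DsRed ratio, PSI derived from sequencing read proportions per bin multiplied by bin number.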

First: KQTIGNSCKACGYRGMLATHHKLC
Second: KQTIGNSCKACGYRGMLVTHHKLC
The protein stability index of the first is higher: 2.85 for the first, 2.39 for the second.

First: KQTIGNSCKACGYRGMLMTHHKLC
Second: KQTIGNSCKACGYRGMLWTHHKLC
The protein stability index of the first is higher: 2.56 for the first, 1.99 for the second.

Going from KQTIGNSCKACGYRGMLHTHHKLC to KQTKGNSCKACGYRGMLDTHHKLC, the protein stability index rises from 3.07 to 3.41.

First: KQTNGNSCKACGYRGMLDTHHKLC
Second: KQTEGNSCKACGYRGMLDTHHKLC
The protein stability index of the first is lower: 3.63 for the first, 3.92 for the second.

Going from KQTIGNSCKAWGYRGMLDTHHKLC to KQTIGNSCKAFGYRGMLDTHHKLC, the protein stability index rises from 2.06 to 2.17.

First: KQTIGNSCKAAGYRGMLDTHHKLC
Second: KQTIGNSCKATGYRGMLDTHHKLC
The protein stability index of the first is higher: 2.2 for the first, 1.56 for the second.

First: KQTIGNSCTACGYRGMLDTHHKLC
Second: KQTIGNSCGACGYRGMLDTHHKLC
The protein stability index of the first is higher: 3.3 for the first, 2.82 for the second.

Compared with KQTIGNSCMACGYRGMLDTHHKLC, KQTIGNSCHACGYRGMLDTHHKLC is higher in protein stability index: 2.85 for the first, 3.08 for the second.

First: QQTIGNSCKACGYRGMLDTHHKLC
Second: PQTIGNSCKACGYRGMLDTHHKLC
The protein stability index of the first is lower: 3.14 for the first, 3.6 for the second.

Compared with CQTIGNSCKACGYRGMLDTHHKLC, GQTIGNSCKACGYRGMLDTHHKLC is higher in protein stability index: 2.97 for the first, 3.35 for the second.

Compared with IQTIGNSCKACGYRGMLDTHHKLC, KQTIGRSCKACGYRGMLDTHHKLC is higher in protein stability index: 2.04 for the first, 2.84 for the second.

Going from KQTIGYSCKACGYRGMLDTHHKLC to KQTIGPSCKACGYRGMLDTHHKLC, the protein stability index falls from 3.92 to 3.12.

Going from KQTIGVSCKACGYRGMLDTHHKLC to KQTIQNSCKACGYRGMLDTHHKLC, the protein stability index falls from 3.52 to 3.3.

Going from KQTIFNSCKACGYRGMLDTHHKLC to KQTILNSCKACGYRGMLDTHHKLC, the protein stability index falls from 2.64 to 2.37.

Going from KQTIVNSCKACGYRGMLDTHHKLC to KQTIGNSCKACGYRGYLDTHHKLC, the protein stability index falls from 3.46 to 2.98.

Going from KQTIGNSCKACGYRGELDTHHKLC to KQTIGNSCKACGYRGKLDTHHKLC, the protein stability index rises from 4.14 to 4.35.

Going from KQTIGNSCKACGYEGMLDTHHKLC to KQTIGNSCKACGYRGMLDTHRKLC, the protein stability index falls from 3.1 to 3.

Going from KQTIGNSCKACGYRGMLDTHQKLC to KQTIGNSCKACGYRGMLDTHFKLC, the protein stability index falls from 2.51 to 2.35.

Compared with KQTIGNSCKACGYRGMLDTYHKLC, KQTIGNSCKACGYRGMLDTPHKLC is higher in protein stability index: 2.09 for the first, 2.47 for the second.

First: KQTIGNSHKACGYRGMLDTHHKLC
Second: KQTIGNSTKACGYRGMLDTHHKLC
The protein stability index of the first is lower: 1.91 for the first, 2.05 for the second.

Going from KQTIGNSVKACGYRGMLDTHHKLC to KQTIGNSYKACGYRGMLDTHHKLC, the protein stability index falls from 1.78 to 1.44.

First: KQTIGNSSKACGYRGMLDTHHKLC
Second: KQTIGNSWKACGYRGMLDTHHKLC
The protein stability index of the first is higher: 2.19 for the first, 1.95 for the second.

Going from KQTIGNSLKACGYRGMLDTHHKLC to KQTIGNSCKACGYRGMLDTHHHLC, the protein stability index rises from 3.05 to 3.37.

First: KQTIGNSCKACGYRGMLDTHHRLC
Second: KQTIGNSCKACGYRGMLDTHHDLC
The protein stability index of the first is lower: 2.34 for the first, 3.72 for the second.

Compared with KQTIGNSCKACGYRGMLDFHHKLC, KQTIGNSCKACGYRGMLDHHHKLC is higher in protein stability index: 2.17 for the first, 3.43 for the second.

Compared with KQTIGNSCKACGYRGMLDQHHKLC, KQEIGNSCKACGYRGMLDTHHKLC is lower in protein stability index: 3.03 for the first, 2.99 for the second.

Going from KQIIGNSCKACGYRGMLDTHHKLC to KQDIGNSCKACGYRGMLDTHHKLC, the protein stability index rises from 2.71 to 4.01.

First: KQSIGNSCKACGYRGMLDTHHKLC
Second: KQYIGNSCKACGYRGMLDTHHKLC
The protein stability index of the first is lower: 3.19 for the first, 3.35 for the second.

First: KQTIGNSCKACGYRGMWDTHHKLC
Second: KQTIGNSCKACGYRGMNDTHHKLC
The protein stability index of the first is lower: 2.31 for the first, 3.65 for the second.

Going from KQTIGNSCKACGYRGMMDTHHKLC to KQTIGNSCKACGYRRMLDTHHKLC, the protein stability index falls from 2.96 to 2.72.

Going from KQTIGNSCKACGYRKMLDTHHKLC to KQTIGNSCKACGYRIMLDTHHKLC, the protein stability index rises from 2.11 to 2.26.

First: KQTIGNSCKACGYREMLDTHHKLC
Second: KQTIGNSCKACGYRWMLDTHHKLC
The protein stability index of the first is higher: 2.24 for the first, 1.52 for the second.

Compared with KQTIGNSCKFCGYRGMLDTHHKLC, KQTIGNSCKMCGYRGMLDTHHKLC is lower in protein stability index: 4.01 for the first, 3.12 for the second.

First: KQTIGNSCKQCGYRGMLDTHHKLC
Second: KQTIGNSCKDCGYRGMLDTHHKLC
The protein stability index of the first is lower: 3 for the first, 3.68 for the second.

Going from KQTIGNSCKACPYRGMLDTHHKLC to KQTIGNSCKACYYRGMLDTHHKLC, the protein stability index rises from 1.84 to 2.14.

First: KQTIGNSCKACVYRGMLDTHHKLC
Second: KQTIGNSCKACGGRGMLDTHHKLC
The protein stability index of the first is lower: 1.62 for the first, 2.75 for the second.

Compared with KQTIGNSCKACGQRGMLDTHHKLC, KQTIGNSCKACGARGMLDTHHKLC is higher in protein stability index: 3.29 for the first, 3.7 for the second.

Compared with KQTIGNSCKACGCRGMLDTHHKLC, KSTIGNSCKACGYRGMLDTHHKLC is lower in protein stability index: 3.61 for the first, 3.05 for the second.

Compared with KDTIGNSCKACGYRGMLDTHHKLC, KQTIGNSCKACGYRGMLDTHHKLP is lower in protein stability index: 2.84 for the first, 1.81 for the second.

Going from KQTIGNSCKACGYRGMLDTHHKLE to KQTIGNSCKACGYRGMLDTHHKLR, the protein stability index falls from 2.11 to 1.38.

Compared with KQTIGNSCKACGYRGMLDTHHKLG, KQTIGNSCKACGYRGMLDTHHKSC is higher in protein stability index: 1.63 for the first, 4.18 for the second.

Going from KQTIGNSCKACGYRGMLDTHHKWC to KQTIGNSCKACGYRGMLDTHHKVC, the protein stability index rises from 3.91 to 4.26.

First: KQTIGNSCKACGYRGMLDTHHKGC
Second: KQTIGNSCKACGYRGMLDTHHKCC
The protein stability index of the first is lower: 3.93 for the first, 4.27 for the second.

Compared with KQTIGNSCKACGYRGMLDTHHKHC, KQTIGNSCKACGYRGMLDTHHKAC is lower in protein stability index: 4.67 for the first, 3.89 for the second.

Going from KQTIGNYCKACGYRGMLDTHHKLC to KQTIGNHCKACGYRGMLDTHHKLC, the protein stability index falls from 4.17 to 4.11.

First: KQTIGNRCKACGYRGMLDTHHKLC
Second: KQTIGNDCKACGYRGMLDTHHKLC
The protein stability index of the first is lower: 3.11 for the first, 3.83 for the second.

Compared with KQTIGNGCKACGYRGMLDTHHKLC, KQTIGNMCKACGYRGMLDTHHKLC is higher in protein stability index: 3.5 for the first, 3.58 for the second.
